Source: patent publication US20090181894A1

Target: GnRH binding sites on neoplastic cells (plasma membranes of the SW-48 colon adenocarcinoma cell line in the binding assay)
Assay: binding of 125I-GnRH to plasma membranes of SW-48 cells, filter assay

non-specific binding: 37%
Substance: 125I-GnRH (from UniProt P01148) (peptide)
